The series deals with the molecule itself. The series is described as follows: cryo-EM structure.

B1: Lcb2 (enzyme, S. cerevisiae)
chain: MSTPANYTRVPLCEPEELPDDIQKENEYGTLDSPGHLYQVKSRHGKPLPEPVVDTPPYYISLLTYLNYLILIILGHVHDFLGMTFQKNKHLDLLEHDGLAPWFSNFESFYVRRIKMRIDDCFSRPTTGVPGRFIRCIDRISHNINEYFTYSGAVYPCMNLSSYNYLGFAQSKGQCTDAALESVDKYSIQSGGPRAQIGTTDLHIKAEKLVARFIGKEDALVFSMGYGTNANLFNAFLDKKCLVISDELNHTSIRTGVRLSGAAVRTFKHGDMVGLEKLIREQIVLGQPKTNRPWKKILICAEGLFSMEGTLCNLPKLVELKKKYKCYLFIDEAHSIGAMGPTGRGVCEIFGVDPKDVDILMGTFTKSFGAAGGYIAADQWIIDRLRLDLTTVSYSESMPAPVLAQTISSLQTISGEICPGQGTERLQRIAFNSRYLRLALQRLGFIVYGVADSPVIPLLLYCPSKMPAFSRMMLQRRIAVVVVAYPATPLIESRVRFCMSASLTKEDIDYLLRHVSEVGDKLNLKSNSGKSSYDGKRQRWDIEEVIRRTPEDCKDDKYFVN
modifications: pyridoxal 5'-phosphate (PLP) as internal aldimine with K366
Take B1: the binding result is listed as “binds”.

These data come from paper doi:10.1101/2023.02.03.526835 (bioRxiv, 2023).
